# Assay: yeast display, Sf9 membrane polyspecificity reagent, FACS + sequencing; frameworks hold sequencing errors
# How it was run: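 Polyreactivity labels are assigned by the sorting gate from which each nanobody was recovered. The gates were low and high (top ~1%), set on anti-HA fluorescence for expression and streptavidin fluorescence for reagent binding. Before sorting, galactose-induced (36–48 hours) yeast display cells were stained for 1 hour at 4 °C with 10% biotinylated, detergent-solubilized Sf9 membrane reagent.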
row,Sequence,polyreactivity (PSR sort gate)
1,QVQLVESGGGLVQAGGSLRLSCAASGRTFRPYAMGWYIQAPGKERELVAAIDSSGTSTYYADSVKGRFTISRDNAKNTVYLQMNSLKPEDTAVYYCAKAWPDHWYSRYDYWGQGTQVTVSS,low polyreactivity
2,QVQLVESGGGLVQAGGSLRLSCAASGRTFRPYAMGWYRQAPGKERELVAAIDSSGTSTYYADSVKGRFTISRDNAKNTVYLQMNCLKPEDTAVYYCNTSLKRRRLRFNYWGQGTQVTVSS,low polyreactivity
3,QVQLVESGGGLVQAGGSLRLSCAASGRTFRPYAMGWYRQAPGTERELVARITSGGGRTYYADSVKGRFTISRDNAKNTVYLQMNSLKPEDNAVYYCNKAIYSLYRDGYTNFDYWGQGTQVTVSS,high polyreactivity
4,QVQLVESGGGLVQAGGSLRLSCAASGRTFRPYPMGWYRQAPGKERELVAAITRSGGSTYYADSVKGRFTISRDNAKNTVYLQMNSLKPEDTAVYYCAAYNTYSDTYDYWGQGTQVTVSS,low polyreactivity
5,QVQLVESGGGLVQAGGSLRLSCAASGRTFRRNAMGWYRQAPGKERELVADISNGDSTKYADSVKGRFTISRDNAKNTVYLQMNSLKPEDTAVYYCNAQRYRVVVYNSHGWQTRNYWGQGTQVTVSS,low polyreactivity
6,QVQLVESGGGLVQAGGSLRLSCAASGRTFRRSAMGWYRQAPGKEREFVAAISVSGDSTYADSVKGRFTISRDNAKNTVYLQMNSLKPEDTAVYYCAAVYWYCGWKVDYWGQGTQVTLSS,low polyreactivity
7,QVQLVESGGGLVQAGGSLRLSCAASGRTFRRYAMGWYRQAPGKERELVAAISSSSGTTYYADSVKGRFTISRDNEKNTDYLQMNSLKPEDTAVYYCAAYSRYTTRQYDYWGQGTQVTVSS,high polyreactivity
8,QVQLVESGGGLVQAGGSLRLSCAASGRTFRRYAMGWYRQAPGKERELVAAITRGGSTNYADSVKGRFTISRDNAKDTVYLQMNSLKPEDTAVYYCAKDPLATFYGYWGQGTQVTVSS,high polyreactivity
9,QVQLVESGGGLVQAGGSLRLSCAASGRTFRRYTMGWYRQAPGKERELVAAITTSGGSTYYADSVKGRFTISRDNAKNTVYLQMNSLKPEDTAVYYCAATRRYSGDYWGQGTQVTVSS,high polyreactivity
10,QVQLVESGGGLVQAGGSLRLSCAASGRTFRSNAMGWFRQAPGKERELVAAISRTGRTNYADSVKGRFTISRDNAKNTVYLQMNSLKPEDTAVYYCAARGYSVPWQERYDYWGQGTQVTVSS,high polyreactivity
11,QVQLVESGGGLVQAGGSLRLSCAASGRTFRSNAMGWYRQAPGKERELVAAIRTSGGSTYYADSVKGRFTISRDNAKNTVYLQMNSLKPEDTAVYYCNAELRDLEFDYWGQGTQVTVSS,low polyreactivity
12,QVQLVESGGGLVQAGGSLRLSCAASGRTFRSNAMGWYRQAPGKERELVAVITRSGGSTDYADSVKGRFTISRDNAKNTVYLQMNSLKPEDTAVYYCAVRRYDYWGQVTQVTVSS,high polyreactivity
13,QVQLVESGGGLVQAGGSLRLSCAASGRTFRSYAMGWYRQAPGKEREFVAAISRSGASTRYADSVKGRFTISRDNAKNTVYLQMNSLKPEDTAVYYCAKSWRYSINQSYRAGYNYWGQGTQVTVSS,high polyreactivity
14,QVQLVESGGGLVQAGGSLRLSCAASGRTFRSYAMGWYRQAPGKERELVAAISRGGRTNYADSVKGRFTISRDNAKNTVYLQMNSLKPEDTAVYYCAAAQFRSYWAFDYWGQGTQVTVSS,high polyreactivity
15,QVQLVESGGGLVQAGGSLRLSCAASGRTFRSYAMGWYRQAPGKERELVAGISYNGGSTYYADSVKGRFTISRDNAKNTVYLQMNSLKPADTAGYYCAATHHYRLYDYWGQGTQVNVSS,low polyreactivity
16,QVQLVESGGGLVQAGGSLRLSCAASGRTFRSYTMGWYRQAPGKERELVAAISYNGGSTYYADSVKGRFTISRDNAKNTVYLQMNSLKPEDTAVYYCNKDFDGRFDYWGQGTQVTVSS,high polyreactivity
17,QVQLVESGGGLVQAGGSLRLSCAASGRTFRTNAMAWYRQAPGKERELVAAITSDGTYYADSVKGRFTISRDNAKNTVYLQMNSLKPEDTAVYYWNVDDRENRDDYWGQGTQVTVSS,low polyreactivity
18,QVQLVESGGGLVQAGGSLRLSCAASGRTFRTNAMGWYRQAPGKERELVAAISTGGGITNYADSVKGRFTISRDNAKNTVYLQMNSLKPEDTAVYYCNADIYTWFQIGGYQYDYWGQGTQVTVSS,low polyreactivity
19,QVQLVESGGGLVQAGGSLRLSCAASGRTFRTYAMGWYRQAPGKETELVAANSSGGSTNYADSVKGRFTISRDNEKNTVYLQMNSLKPEDTAVYYCATRPTSDFVKRRVYEWLDYWGQGTQVTVSS,low polyreactivity
20,QVQLVESGGGLVQAGGSLRLSCAASGRTFRTYNMGWYRQAPGKERELVAAISYSGGSTYYADSVKGRFTISRDNAKNTVYLQMNSLKPEDNAVYYCNARRYFWGFDYWGQGTQVNVSS,high polyreactivity
21,QVQLVESGGGLVQAGGSLRLSCAASGRTFRVYAKGWYRQAPGKERDFVAAITDSGGRKYYADSVKGRFTISRDNAKHTVYVQMNSLKPEDTAVYYCNAYEYFVRYDTYLFRYDYWGQGTQVTVSS,low polyreactivity

row,Sequence,polyreactivity (PSR sort gate)
1,QVQLVESGGGLVQAGGSLRLSCAASGRTFRVYAMGWYRQAPGKEREFVAAISYSGGRTYYADSVKGRFTISRDNAKNTVYLQMNSLKPEDTAVYYCAKRVPYGRGVTGYYWGQGTQVTVSS,high polyreactivity
2,QVQLVESGGGLVQAGGSLRLSCAASGRTFRVYAMGWYRQAPGKERELVASITRGGGTYADSVKGRFTISRDNAKNTVSLQMNSLKPEDTAVYYCNADSRRRRIHYDYWGQGTQVTVSS,high polyreactivity
3,QVQLVESGGGLVQAGGSLRLSCAASGRTFRVYSMGWYRQAPGKERDFVAAITDSGGRTYYADSVKGRFTISRDNAKNTVYLQMNCLKPEDTAVYYCNAYQYYERYDTYLFRYDYWGQGTQVTVSS,low polyreactivity
4,QVQLVESGGGLVQAGGSLRLSCAASGRTFRWNAMGWYRQAPGKERELVAAISSGGSTYYADSVKGRFTISRDNAKNTVYFQMNSLKPEDTAVYYCNKYYVRAYDTQEYDYWGQGTQVTVSS,high polyreactivity
5,QVQLVESGGGLVQAGGSLRLSCAASGRTFRWYAMGWYRQAPGKERELVAAISQSGGSTYYADSVKGRFTISRDNAKNSVYLQMNSLKPVDTAVYYCAKVTYRGYYSWGQGTQLTVSS,high polyreactivity
6,QVQLVESGGGLVQAGGSLRLSCAASGRTFRWYAMGWYRQAPGKERELVADISSVGSTDYADSVKGRFTISRDNAKNTVYLQMNSLKPEDTAVYYCAADFSPRRYHNRSFGYWGQGTQVTVSS,low polyreactivity
7,QVQLVESGGGLVQAGGSLRLSCAASGRTFRWYAMGWYRQAPGKERELVATITSGGSTNYADSVKGRFTISRDNAKNSVYLQMNSLKPEDTAVYYCAAWSYAYYYRLRYVSHDYWGQGTQVTVSS,high polyreactivity
8,QVQLVESGGGLVQAGGSLRLSCAASGRTFRWYTLGWYRQAPGKERELVAAITSRGGSTYADSVKGRFTISRDNAKNTVYLQMNSLKPEDTAVYYCNAARTYQYDYWGQGTQVTVSS,high polyreactivity
9,QVQLVESGGGLVQAGGSLRLSCAASGRTFRYNAMGWYRQAPGKERELVAAIRYSGGRTYADSVKGRFTISRDNAKNTVYLQMNSLKPEDTAVYYCNADSIRRGYRYDYWGQGTQVTVSS,high polyreactivity
10,QVQLVESGGGLVQAGGSLRLSCAASGRTFRYNAMGWYRQAPGKERELVAAISASGGSTYYADSVKGRFTISRDNAKNTVYLQMNSLKPEDTAVYYCATYYRVGYDYWGQGTQVTVSS,high polyreactivity
11,QVQLVESGGGLVQAGGSLRLSCAASGRTFRYNAMGWYRQAPGKERELVAAISGSGGITYYADSVKGRFTISRDNAKNTVYLQMNSLKPEDTAVYYCAAVYRYNSDPDYDYWGQGTQVTVSS,high polyreactivity
12,QVQLVESGGGLVQAGGSLRLSCAASGRTFRYNAMGWYRQAPGKERELVAAITWSGGSTYYADSVKGRFTISRDNAKNTVYLQMNSLKPEDTAVYYCAKGRRRSHPYDYWGQGTQVTVSS,high polyreactivity
13,QVQLVESGGGLVQAGGSLRLSCAASGRTFRYNAMGWYRQAPGKERELVARISRGGSTYADSVKGRFTISRDNAKNTVYLQMNSLKPEDTAVYYCAAYPTKHNQSEYYYWGQGTQVTVSS,low polyreactivity
14,QVQLVESGGGLVQAGGSLRLSCAASGRTFRYNAMGWYRQAPGKERELVASIRYSSASTYYADSVKGRFTISRDNAKNTVYLQMNSLKPVDTAVYYCAASWYPVFVGYDYWGQGTQVTVSS,high polyreactivity
15,QVQLVESGGGLVQAGGSLRLSCAASGRTFRYNTMGWYRQAPGKERELVAAITWSGGRTYYADSVKGRFTISRDNAKNTVYLQMNSLNPEDTAVYYCNADVPYSRSIYGFYYWGQGTQVTVSS,high polyreactivity
16,QVQLVESGGGLVQAGGSLRLSCAASGRTFRYYAMGWYRQAPGKEREFVAAITKRGGSTYYADSVKGRFTISRDNAKNTVYLQMNSLKAEDTAVYYCAADTSTWAHTRGYDYWGQGTQVTVSS,high polyreactivity
17,QVQLVESGGGLVQAGGSLRLSCAASGRTFRYYAMGWYRQAPGKEREFVAAITRSAVSTYYADSVKGRFTISRDNAKNTVYLQMNSLKPEDTAIYYCAVDSSLVKVGFDYWGQGTQVTVSS,high polyreactivity
18,QVQLVESGGGLVQAGGSLRLSCAASGRTFRYYAMGWYRQAPGKEREFVASIRRGGGSTYYADSVKGRFTISRDNAKNTVYLQMNSLKPEDTAVYYCAAQPYTLSLFRLNYDYWGQGTQVTVSS,low polyreactivity
19,QVQLVESGGGLVQAGGSLRLSCAASGRTFRYYAMGWYRQAPGKERELVAAISRGDSTHYADSVKGRFTISRDNAKNTVYLQMNSLKPEDTAVDYCAAYRGRSVDRQPYYCGQGTQVTVSS,high polyreactivity
20,QVQLVESGGGLVQAGGSLRLSCAASGRTFRYYAMGWYRQAPGKERELVAAISSGGRTNYADSVKGRFTISRDNAKNTVYLQMNSLKPEDTAVYYCAARNTRFWYQNNLYDYWGQGTQVTVSS,high polyreactivity

# Source: the nanobody polyreactivity screen of Harvey et al. (2022)
